Reference: patent US20200347130A1 (JIANGSU HENGRUI MEDICINE, published 2020)

T1: Full-length human CD96 on CHO-S cells (human, UniProt P40200 22-585)
T1 construct: also called CD96-CHOs; hCD96-CHOs
T1 sequence: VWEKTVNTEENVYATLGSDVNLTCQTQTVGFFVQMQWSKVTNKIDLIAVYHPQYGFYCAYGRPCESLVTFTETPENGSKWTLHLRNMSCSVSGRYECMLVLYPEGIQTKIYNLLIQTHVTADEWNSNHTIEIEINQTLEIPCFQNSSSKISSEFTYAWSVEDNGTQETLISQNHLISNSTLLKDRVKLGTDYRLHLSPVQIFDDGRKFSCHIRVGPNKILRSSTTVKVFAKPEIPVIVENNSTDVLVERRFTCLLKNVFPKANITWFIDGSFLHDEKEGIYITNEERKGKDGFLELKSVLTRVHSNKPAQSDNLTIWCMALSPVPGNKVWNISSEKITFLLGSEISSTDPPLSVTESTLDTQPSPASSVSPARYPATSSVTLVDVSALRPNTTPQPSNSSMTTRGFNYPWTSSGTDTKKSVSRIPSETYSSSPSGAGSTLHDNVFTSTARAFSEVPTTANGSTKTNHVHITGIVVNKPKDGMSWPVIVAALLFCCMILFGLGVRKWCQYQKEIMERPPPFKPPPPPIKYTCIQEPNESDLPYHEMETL

T2: CD96 extracellular region with His tag (CD96-His) (human, UniProt P40200 22-519)
T2 construct: also called CD96-ECD-His; Bio-CD96-His (biotin-labelled form)
T2 sequence: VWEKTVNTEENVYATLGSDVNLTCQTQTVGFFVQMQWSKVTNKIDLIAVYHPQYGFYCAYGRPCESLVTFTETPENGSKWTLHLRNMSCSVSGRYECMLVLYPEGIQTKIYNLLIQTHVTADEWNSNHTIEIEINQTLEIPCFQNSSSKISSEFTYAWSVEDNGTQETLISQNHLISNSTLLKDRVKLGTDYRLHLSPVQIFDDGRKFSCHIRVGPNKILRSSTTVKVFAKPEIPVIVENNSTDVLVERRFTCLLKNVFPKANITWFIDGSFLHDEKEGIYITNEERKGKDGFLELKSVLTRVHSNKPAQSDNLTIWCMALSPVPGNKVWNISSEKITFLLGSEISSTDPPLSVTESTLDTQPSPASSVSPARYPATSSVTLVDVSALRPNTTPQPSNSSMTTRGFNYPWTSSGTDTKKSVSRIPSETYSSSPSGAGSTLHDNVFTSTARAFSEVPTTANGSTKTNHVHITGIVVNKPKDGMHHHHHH


Legend:
[1] = target: T1, Full-length human CD96 on CHO-S cells; assay: cell ELISA, fixed CD96-overexpressing CHO-S cells
Procedure, shortened: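 EC50 was derived from 450 nm absorbance after TMB development (10-25 min, stopped with 1M H₂SO₄). Before that, antibody concentration series bound for 2 h at 37 °C to fixed, milk-blocked CHO-S cells overexpressing full-length human CD96, seeded at 9×10⁴/well.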

[2] = target: T2, CD96 extracellular region with His tag …; assay: ELISA, CD96-His coated
Procedure, shortened: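 Hybridoma-purified or humanized antibodies were titrated onto wells coated with 2 μg/ml His-tagged human CD96 and incubated 1 h at 37 °C after milk blocking. Binding was detected by TMB absorbance at 450 nm, and EC50 values were calculated.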

[3] = target: T2, CD96 extracellular region with His tag …; assay: SPR (Biacore), antibody captured, CD96-ECD-His as mobile phase
From the text: Protein A biosensor chip was used to capture antibodies to be tested, then CD96 antigen was flowed on the surface of the chip, and real time reaction signal was detected by Biacore to obtain the binding and dissociation curve. After the dissociation of each experimental cycle was completed, the biosensor chip was washed and regenerated with a glycine-hydrochloric acid regeneration solution (pH 1.5).

| Binder | EC50 [1] | EC50 [2] | Kd [3] |
| --- | --- | --- | --- |
| h1719-006 (antibody, V domains shown, also called M719-006) VH: EVTLKESGPVLVKPTETLTLTCTVSGFSLSSYGVSWVRQPPGKGLEWLGVIWGDGNTNYHSVLISRLTISKDTSKSQVVLTLTNMDPVDTATYYCAKNNYYGSRYGYPMDYWGQGTTVTVSS VL: DIQMTQSPSSVSASVGDRVTITCKATQDVGTAVAWYQQKPGKSPKLLIYWASTRHTGVPERFSGSGSGTDFTLTISSLQPEDFATYFCQQYGSSVLTFGGGTKVEIK | 0.016 nM | 0.083 nM | 13.1 nM |
| h1719-014 (antibody, V domains shown, Only variable regions are tied to this name; also called M719-014) VH: EVTLKESGPVLVKPTETLTLTCTVSGFSLSSYGVSWVRQPPGKGLEWLGVIWGDGNTNYHSVLISRLTISKDTSKSQVVLTLTNMDPVDTATYYCAKNYYYGSRYGYPLDYWGQGTTVTVSS VL: DIQMTQSPSSVSASVGDRVTITCKATQDVGTAVAWYQQKPGKSPKLLIYWASTRHTGVPERFSGSGSGTDFTLTISSLQPEDFATYFCQQYGSSVLTFGGGTKVEIK | 0.02 nM | 0.091 nM | 14.9 nM |
